Reference: US11278600B2, “Human alpha-galactosidase variants” (Codexis, Inc., priority 2014, dated 2022)
Changes are numbered by the printed parent chain.

B1: 543 (protein)
chain: LDNGLARTPTMGWLHWERFMCNLDCQEEPDSCISEKLFMEMAERMVSEGWKDAGYEYLCIDDCWMAPQRDSEGRLQADPQRFPHGIRQLANHVHSKGLKLGIYADVGNKTCAGFPGSFGYYDIDAQTFADWGVDLLKFDGCYCDSLENLADGYKHMSLALNRTGRSIVYSCEWPLYMWPFQKPNYTEIRQYCNHWRNFADIDDSWASIKSILDWTSRNQERIVDVAGPGGWNDPDMLVIGNFGLSWDQQVTQMALWAIMAAPLFMSNDLRHISPQAKALLQMKDVIAINQDPLGKQGYQLRKGDNFEVWERPLSGDAWAVAIINRQEIGGPRSYTIPVASLGKGVACNPACFITQLLPVKRQLGFYNWTSRLKSHINPTGTVLLQLENTMQMSLKDLL
modifications: Synthetic Polypeptide sequence of Variant No. 543 of mature Human GLA
B2: 516 (protein)
chain: B1 chain with D2E, M282D, Q326G
modifications: Synthetic Polypeptide sequence of Variant No. 516 of mature Human GLA
B3: 544 (protein)
chain: B1 chain with M282V
modifications: Synthetic Polypeptide sequence of Variant No. 544 of mature Human GLA
B4: 545 (protein)
chain: B1 chain with M282D, K295A
modifications: Synthetic Polypeptide sequence of Variant No. 545 of mature Human GLA
B5: 546 (protein)
chain: B1 chain with M282D, K295E
modifications: Synthetic Polypeptide sequence of Variant No. 546 of mature Human GLA

Experiments:
Assay type in all cases: biochemical
[1] = HTP-analysis of supernatants pretreated with base (MUGal hydrolysis); conditions: activity of the variant/activity of Rd3BB (SEQ ID NO: 13); challenge at pH 9.7
Procedure, shortened: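 Supernatants from INVSc1 yeast expressing GLA variants (SD-Ura, 66-84 h, 30° C) were mixed with McIlvaine buffer pH 7.0-8.2 or 200 mM sodium bicarbonate pH 9.1-9.7 and held 1-18 h at 37° C. Residual activity was then measured on MUGal at pH 4.8/4.3, 37° C, 30-180 min, by fluorescence (Ex 355/Em 448 nm).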

[2] = HTP-analysis of supernatants pretreated with acid (MUGal hydrolysis); conditions: activity of the variant/activity of Rd3BB (SEQ ID NO: 13); challenge at pH 3.7
Procedure, shortened: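 Yeast INVSc1 supernatant, GLA variants; acid challenge: McIlvaine pH 3.3-4.3, 37° C., 1-3 h. Assay: MUGal in McIlvaine pH 4.8 plus citrate pH 4.3, 37° C., 30-180 min, Na2CO3 stop, Ex 355/Em 448 nm.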

[3] = HTP-analysis of yeast culture supernatants, no challenge (MUGal hydrolysis); conditions: activity of the variant/activity of Rd3BB (SEQ ID NO: 13)
Procedure, shortened: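 Activity read as 4-methylumbelliferyl α-D-galactopyranoside hydrolysis: fluorescence (355/448 nm) after sodium carbonate stop, following 30-180 min at 37° C with 2 mM MUGal stock at pH 4.6–4.8. Enzyme source is unchallenged culture supernatant of INVSc1 yeast expressing GLA variants, grown 66-84 h at 30° C.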

Row | Molecule | Relative Activity of GLA Variants After Challenge at pH 9.7 [1] | Relative Activity of GLA Variants After Challenge at pH 3.7 [2] | Relative Activity of GLA Variants After No Challenge (NC) [3]
1 | B1 | + (+ = 1.5 to 5 relative activity over Rd3BB (SEQ ID NO: 13)) | + (+ = 1.5 to 5 relative activity over Rd3BB (SEQ ID NO: 13)) | + (+ = 1.5 to 5 relative activity over Rd3BB (SEQ ID NO: 13))
2 | B2 | + (+ = 1.5 to 5 relative activity over Rd3BB (SEQ ID NO: 13)) | +++ (+++ = >10 relative activity over Rd3BB (SEQ ID NO: 13)) | + (+ = 1.5 to 5 relative activity over Rd3BB (SEQ ID NO: 13))
3 | B3 | + (+ = 1.5 to 5 relative activity over Rd3BB (SEQ ID NO: 13)) | + (+ = 1.5 to 5 relative activity over Rd3BB (SEQ ID NO: 13)) | + (+ = 1.5 to 5 relative activity over Rd3BB (SEQ ID NO: 13))
4 | B4 | ++ (++ = >5 to 10 relative activity over Rd3BB (SEQ ID NO: 13)) | + (+ = 1.5 to 5 relative activity over Rd3BB (SEQ ID NO: 13)) | + (+ = 1.5 to 5 relative activity over Rd3BB (SEQ ID NO: 13))
5 | B5 | ++ (++ = >5 to 10 relative activity over Rd3BB (SEQ ID NO: 13)) | +++ (+++ = >10 relative activity over Rd3BB (SEQ ID NO: 13)) | + (+ = 1.5 to 5 relative activity over Rd3BB (SEQ ID NO: 13))
